Source: publication PMC3393671

What was measured:
[1] = biological target: ROP5 of T. gondii strain RH-YFP (isoforms not told apart) (UniProt F2YGR7); assay: pull-down (quantitated Western blot); conditions: 25 µg protein/100 µl 1:1 bead suspension; RH-YFP strain T. gondii lysates; 3E2 antibody (anti-ROP5); GST signal subtracted; parent: est. 100; read off a plot
[2] = biological target: GST-Irga6-D164A (mouse) (UniProt Q9QZ85); assay: pull-down; GST-IRG fusion (25 or 50 µg per 100 µl 1:1 bead suspension) on Glutathione Sepharose 4B; postnuclear NP-40 lysate of RH-YFP T. gondii; o/n at 4°C; with or without 1 mM GDP; Western blot with mAb 3E2 (ROP5) or anti-ROP18 antiserum; GST-loaded beads as control
GST-Irga6-D164A (mouse), sequence (Q9QZ85 1-411 D164A): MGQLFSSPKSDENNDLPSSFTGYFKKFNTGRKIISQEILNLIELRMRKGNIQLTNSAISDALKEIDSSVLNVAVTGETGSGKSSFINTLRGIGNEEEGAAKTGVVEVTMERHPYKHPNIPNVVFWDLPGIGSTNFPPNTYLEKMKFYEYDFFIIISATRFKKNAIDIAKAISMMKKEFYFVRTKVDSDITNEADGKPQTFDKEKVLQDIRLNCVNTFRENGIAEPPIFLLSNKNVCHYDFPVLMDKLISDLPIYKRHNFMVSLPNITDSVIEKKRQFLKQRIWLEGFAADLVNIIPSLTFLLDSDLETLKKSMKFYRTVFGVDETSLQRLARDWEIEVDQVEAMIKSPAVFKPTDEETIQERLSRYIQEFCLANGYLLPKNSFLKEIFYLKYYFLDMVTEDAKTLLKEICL

GST-Irga6, sequence (Q9QZ85 1-411, stated change not applied): as the sequence (Q9QZ85 1-411 D164A) above, with A164D counted along it
ROP5 of T. gondii strain RH-YFP (isoforms not told apart) (from UniProt F2YGR7 25-549) (natural protein), sequence (F2YGR7 25-549): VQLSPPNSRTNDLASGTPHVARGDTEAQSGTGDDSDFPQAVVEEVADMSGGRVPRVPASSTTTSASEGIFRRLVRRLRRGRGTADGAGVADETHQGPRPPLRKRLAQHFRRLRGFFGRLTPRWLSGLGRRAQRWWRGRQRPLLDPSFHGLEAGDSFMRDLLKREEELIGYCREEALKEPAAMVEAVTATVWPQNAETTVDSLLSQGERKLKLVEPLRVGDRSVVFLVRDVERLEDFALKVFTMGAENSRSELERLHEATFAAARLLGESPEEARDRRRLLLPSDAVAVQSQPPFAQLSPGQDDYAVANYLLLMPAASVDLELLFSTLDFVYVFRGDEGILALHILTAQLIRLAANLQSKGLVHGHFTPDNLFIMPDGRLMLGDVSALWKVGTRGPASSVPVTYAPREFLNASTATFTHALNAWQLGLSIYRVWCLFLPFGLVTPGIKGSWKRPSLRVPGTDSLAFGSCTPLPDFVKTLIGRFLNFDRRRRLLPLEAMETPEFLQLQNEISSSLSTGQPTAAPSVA
ROP5 of T. gondii strain RH-YFP (isoforms not told apart) (UniProt F2YGR7), sequence (F2YGR7 25-549): as above

Substance | percent of parent (% of wild-type intensity) [1] | percent of ROP5 binding blocked (against wt GST-Irga6) [2] [%]
GST-Irga6 (from UniProt Q9QZ85) D206R | 68 | –
ROP5 of T. gondii strain RH-YFP (isoforms not told apart) (from UniProt F2YGR7 25-549) (natural protein) | – | > 95
